Experimental data as given in patent US20120258121A1 (OMEROS, published 2012).

Key:
[1] = target: T1, human FN14 on the cell surface (FN14-transfected cells or cancer cell lines intrinsically expressing FN14, … (human, UniProt Q9NP84 28-129)); assay: binding affinity; method not restated in Example 3 (saturation binding on FN14-expressing cells by the methods of Example 1)
T1 construct: The cells in the assays are human cancer lines or FN14-transfected cells (293F/FN14); also called TWEAKR; CD266
T1 sequence: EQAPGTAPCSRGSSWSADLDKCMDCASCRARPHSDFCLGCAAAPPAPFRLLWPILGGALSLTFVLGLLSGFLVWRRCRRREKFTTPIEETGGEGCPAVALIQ

[2] = target: T1, human FN14 on the cell surface …; assay: as above; remark: listed apart in the source
[3] = target: T2, recombinant human FN14-Fc fusion protein (rhFN14-Fc; R&D Systems) (human, UniProt Q9NP84 28-79); assay: saturation binding of PECy5-labelled soluble antigen to FN14-specific DTLacO cells, flow cytometry
T2 construct: Bought reagent; Detected with PECy5-labeled anti-human IgG(Fc); also called soluble FN14; PECy5-labelled soluble antigen; not shown: Fc part of the bought fusion protein (detected with anti-human IgG(Fc))
T2 sequence: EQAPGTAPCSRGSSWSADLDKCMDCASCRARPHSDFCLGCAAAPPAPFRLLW

[4] = target: T1, human FN14 on the cell surface …; assay: saturation binding of recombinant antibody on target-expressing cells
Method: (§1) Saturation binding kinetics were determined by either staining FN14-specific DTLacO cells with various concentrations of fluorescent-labeled soluble antigen, or by staining FN14-transfected cells or cancer cell lines intrinsically expressing FN14 with various concentrations of the recombinant chimeric anti-FN14 mAbs.

[5] = target: T1, human FN14 on the cell surface …; assay: saturation binding of recombinant antibody on target-expressing cells (A375 melanoma)
Method: as §1

[6] = target: T2, recombinant human FN14-Fc fusion …; assay: saturation binding of soluble antigen to DTLacO[FS24] cells, flow cytometry

B1: Humanized PS4: H.1/L.9 (antibody, human IgG1, lambda)
heavy: not shown
light: ALTQPPSVSVSPGQTARITCSGGGSSYYAGSYYYGWYQQKPGQAPVTVIYYNNKRPSGIPERFSGSLSGSTNTLTISGVQAEDEADYYCGSIDNSGAAFGGGTKLTVLGQPKAAPSVTLFPPSSEELQANKATLVCLISDFYPGAVTVAWKADSSPVKAGVETTTPSKQSNNKYAASSYLSLTPEQWKSHRSYSCQVTHEGSTVEKTVAPTECS
notes: also called humanized PS4 antibody H.1/L.9
B1 showed a Kd [1] of 0.24 nM.

B2: Humanized FS24 (antibody, human IgG1, lambda, V domains shown)
VH: EVQLVESGGGLVQPGGSLRLSCAASGFTFSSYDMAWVRQAPGKGLEWVAGIDYDGSGRRYAPAVKGRATISRDNSKNTLYLQMNSLRAEDTAVYYCTKCGYTGGCDYEGGYIDAWGQGTLVTVSS
VL: ELTQPPSVSVSPGQTARITCSGGGSSYYAGSYYYGWYQQKPGQAPVTLIYYNNKRPSGIPERFSGSLSGSTNTLTISGVQAEDEADYYCGSIDNSGAAFGGGTKLTVLG
notes: also called hFS24; humanized FS24 antibody
With B2 the Kd [2] was 0.21 nM.

B3: surface immunoglobulin of the FN14-specific DTLacO cell population FS17 (antibody, V domains shown)
VH: AVTLDESGGGLQTPGGALSLVCKASGFTFSSYDMAWVRQEPGKGLEWVAGIDDDGSGRRYAPAVKGRATISRDNGQSTLRLQLNNLRAEDTGTYYCTKCAYTGGCDYEGGYIDAWGHGTEVIVSS
VL: ALTQPASVSANPGETVKITCSGGGSSYYAGSYYYGWYQQKAPGSAPVTLIYYNNKRPSDIPSRFSGSLSGSTNTLTITGVRADDEAVYFCGSIDNSGAAFGAGTTLTVL
notes: Chicken surface IgM on DTLacO cells
For B3, the Kd [3] was 0.7 nM.

B4: chimeric PS4 antibody (parent of the humanized PS4 versions) (antibody, human IgG1, lambda, V domains shown)
VH: AVTLDESGGGLQTPGGALSLVCKASGFTFSSYDMFWVRQEPGKGLEWVAGIDDDGSGRRYAPAVKGRATISRDNGQSTLRLQLNNLRAEDTGTYYCTKCAYSSGCDYEGGYIDAWGHGTEVIVSS
VL: ALTQPASVSANPGETVKITCSGGGSSYYAGSYYYGWYQQKSPGSAPVTVIYYNNKRPSDIPSRFSGSLSGSTNTLTITGVRADDEAVYFCGSIDNSGAAFGAGTTLTVLG
notes: also called Chicken PS4; original chimeric antibody PS4
Binder B4 has a Kd [1] of 0.21 nM.

B5: recombinant chimeric monoclonal antibody PS4B (chicken V regions, human IgG1 / lambda constant regions) (antibody, V domains shown)
VH: AVTLDESGGGLQTPGGALSLVCKASGFTFSSYDMFWVRQEPGKGLEWVAGIDDDGSGRRYAPAVKGRATISRDNGQSTLRLQLNNLRAEDTGTYYCTKCAYSSGCDYEGGYIDAWGHGTEVIVSS
VL: ALTQPASVSANPGETVKITCSGGGSSYYAGSYYYGWYQQKSPGSAPVTVIYYNNKRPSDIPSRFSGSLSGSTNTLTITGVRADDEAVYFCGSIDNSGAAFGAGTTLTVLG
B5 gave a Kd [4] of 0.35 nM.

B6: recombinant chimeric monoclonal antibody FS17 (chicken V regions, human IgG1 / lambda constant regions) (antibody, V domains shown)
VH: AVTLDESGGGLQTPGGALSLVCKASGFTFSSYDMAWVRQEPGKGLEWVAGIDDDGSGRRYAPAVKGRATISRDNGQSTLRLQLNNLRAEDTGTYYCTKCAYTGGCDYEGGYIDAWGHGTEVIVSS
VL: ALTQPASVSANPGETVKITCSGGGSSYYAGSYYYGWYQQKAPGSAPVTLIYYNNKRPSDIPSRFSGSLSGSTNTLTITGVRADDEAVYFCGSIDNSGAAFGAGTTLTVLG
notes: also called mAb FS17
B6 was tested, and the Kd [4] was 0.36 nM.

B7: recombinant chimeric monoclonal antibody FS24 (chicken V regions, human IgG1 / lambda constant regions) (antibody, V domains shown)
VH: AVTLDESGGGLQTPGGALSLVCKASGFTFSSYDMAWVRQEPGKGLEWVAGIDYDGSGRRYAPAVKGRATISRDNGQSTLRLQLNNLRAEDTGTYYCTKCGYTGGCDYEGGYIDAWGHGTEVIVSS
VL: ALTQPSSVSANPGETVKITCSGGGSSYYAGSYYYGWYQQKAPGSAPVTLIYYNNKRPSDIPSRFSGSLSGSTNTLTITGVRADDEAVYFCGSIDNSGAAFGAGTTLTVLG
notes: also called mAb FS24; Chicken FS24
In the case of B7, the Kd [2] is reported as 0.26 nM and the Kd [5] is reported as 0.21 nM.

B8: recombinant chimeric monoclonal antibody FS10 (chicken V regions, human IgG1 / lambda constant regions) (antibody, V domains shown)
VH: AVTLDESGGGLQTPGGALSLVCKASGFTFSSYDMAWVRQEPGKGLEWVAGIDDDGSGRRYAPAVKGRATISRDNGQSTLRLQLNNLRAEDTGTYYCTKCAYSSGCDYEGGYIDAWGHGTEVIVSS
VL: ALTQPASVSANPGETVKITCSGGGSSYYAGSYYYGWYQQKAPGSALVTLIYYNNKRPSDIPSRFSGSLSGSTNTLTITGVRADDEAVYFCGSADNSGAAFGAGTTLTVLG
notes: expressed in 293F cells; also called mAb FS10
Binder B8 has a Kd [4] of 25 nM.

B9: recombinant chimeric monoclonal antibody PS4A (chicken V regions, human IgG1 / lambda constant regions) (antibody, V domains shown)
VH: AVTLDESGGGLQTPGGALSLVCKASGFTFSSYDMFWVRQEPGKGLEWVAGIDDDGSGRRYAPAVKGRATISRDNGQSTLRLQLNNLRAEDTGTYYCTKCAYSSGCDYEGGYIDAWGHGTEVIVSS
VL: ALTQPSSVSANPGETVKITCSGGGSSYYAGSYYYGWYQQKAPGSAPVTLIYYNNKRPSDIPSRFSGSLSGSTNTLTITGVRADDEAVYFCGSIDNSGAAFGAGTTLTVLG
Work on B9 yielded a Kd [4] of 0.21 nM.

B10: surface immunoglobulin of the FN14-specific DTLacO cell population FS10 (antibody, V domains shown)
VH: AVTLDESGGGLQTPGGALSLVCKASGFTFSSYDMAWVRQEPGKGLEWVAGIDDDGSGRRYAPAVKGRATISRDNGQSTLRLQLNNLRAEDTGTYYCTKCAYSSGCDYEGGYIDAWGHGTEVIVSS
VL: ALTQPASVSANPGETVKITCSGGGSSYYAGSYYYGWYQQKAPGSALVTLIYYNNKRPSDIPSRFSGSLSGSTNTLTITGVRADDEAVYFCGSADNSGAAFGAGTTLTVL
notes: Chicken surface IgM on DTLacO (DT40-derived) cells
B10 showed a Kd [3] of 25 nM.

B11: surface immunoglobulin of the FN14-specific DTLacO cell population FS24 (antibody, V domains shown)
VH: AVTLDESGGGLQTPGGALSLVCKASGFTFSSYDMAWVRQEPGKGLEWVAGIDYDGSGRRYAPAVKGRATISRDNGQSTLRLQLNNLRAEDTGTYYCTKCGYTGGCDYEGGYIDAWGHGTEVIVSS
VL: ALTQPSSVSANPGETVKITCSGGGSSYYAGSYYYGWYQQKAPGSAPVTLIYYNNKRPSDIPSRFSGSLSGSTNTLTITGVRADDEAVYFCGSIDNSGAAFGAGTTLTVL
notes: Chicken surface IgM on DTLacO cells; also called DTLacO[FS24]
Binder B11 has a Kd [6] of 0.44 nM and a Kd [3] of 0.67 nM.

B12: Humanized PS4: H.1/L.1 (antibody, human IgG1)
heavy: not shown
light: SYELTQPPSVSVSPGQTARITCSGGGSSYYAGSYYYGWYQQKPGQAPVTVIYYNNKRPSGIPERFSGSLSGSTNTLTISGVQAEDEADYYCGSIDNSGAAFGGGTKLTVLGQPKAAPSVTLFPPSSEELQANKATLVCLISDFYPGAVTVAWKADSSPVKAGVETTTPSKQSNNKYAASSYLSLTPEQWKSHRSYSCQVTHEGSTVEKTVAPTECS
notes: also called first humanized version of PS4
Binder B12 has a Kd [1] of 15 nM.
